For this experiment, the target named is conventional myosin (Caenorhabditis elegans) (UniProt P02566). Briefly: ELISA.
Sequence of UniProt P02566 (P02566 whole entry): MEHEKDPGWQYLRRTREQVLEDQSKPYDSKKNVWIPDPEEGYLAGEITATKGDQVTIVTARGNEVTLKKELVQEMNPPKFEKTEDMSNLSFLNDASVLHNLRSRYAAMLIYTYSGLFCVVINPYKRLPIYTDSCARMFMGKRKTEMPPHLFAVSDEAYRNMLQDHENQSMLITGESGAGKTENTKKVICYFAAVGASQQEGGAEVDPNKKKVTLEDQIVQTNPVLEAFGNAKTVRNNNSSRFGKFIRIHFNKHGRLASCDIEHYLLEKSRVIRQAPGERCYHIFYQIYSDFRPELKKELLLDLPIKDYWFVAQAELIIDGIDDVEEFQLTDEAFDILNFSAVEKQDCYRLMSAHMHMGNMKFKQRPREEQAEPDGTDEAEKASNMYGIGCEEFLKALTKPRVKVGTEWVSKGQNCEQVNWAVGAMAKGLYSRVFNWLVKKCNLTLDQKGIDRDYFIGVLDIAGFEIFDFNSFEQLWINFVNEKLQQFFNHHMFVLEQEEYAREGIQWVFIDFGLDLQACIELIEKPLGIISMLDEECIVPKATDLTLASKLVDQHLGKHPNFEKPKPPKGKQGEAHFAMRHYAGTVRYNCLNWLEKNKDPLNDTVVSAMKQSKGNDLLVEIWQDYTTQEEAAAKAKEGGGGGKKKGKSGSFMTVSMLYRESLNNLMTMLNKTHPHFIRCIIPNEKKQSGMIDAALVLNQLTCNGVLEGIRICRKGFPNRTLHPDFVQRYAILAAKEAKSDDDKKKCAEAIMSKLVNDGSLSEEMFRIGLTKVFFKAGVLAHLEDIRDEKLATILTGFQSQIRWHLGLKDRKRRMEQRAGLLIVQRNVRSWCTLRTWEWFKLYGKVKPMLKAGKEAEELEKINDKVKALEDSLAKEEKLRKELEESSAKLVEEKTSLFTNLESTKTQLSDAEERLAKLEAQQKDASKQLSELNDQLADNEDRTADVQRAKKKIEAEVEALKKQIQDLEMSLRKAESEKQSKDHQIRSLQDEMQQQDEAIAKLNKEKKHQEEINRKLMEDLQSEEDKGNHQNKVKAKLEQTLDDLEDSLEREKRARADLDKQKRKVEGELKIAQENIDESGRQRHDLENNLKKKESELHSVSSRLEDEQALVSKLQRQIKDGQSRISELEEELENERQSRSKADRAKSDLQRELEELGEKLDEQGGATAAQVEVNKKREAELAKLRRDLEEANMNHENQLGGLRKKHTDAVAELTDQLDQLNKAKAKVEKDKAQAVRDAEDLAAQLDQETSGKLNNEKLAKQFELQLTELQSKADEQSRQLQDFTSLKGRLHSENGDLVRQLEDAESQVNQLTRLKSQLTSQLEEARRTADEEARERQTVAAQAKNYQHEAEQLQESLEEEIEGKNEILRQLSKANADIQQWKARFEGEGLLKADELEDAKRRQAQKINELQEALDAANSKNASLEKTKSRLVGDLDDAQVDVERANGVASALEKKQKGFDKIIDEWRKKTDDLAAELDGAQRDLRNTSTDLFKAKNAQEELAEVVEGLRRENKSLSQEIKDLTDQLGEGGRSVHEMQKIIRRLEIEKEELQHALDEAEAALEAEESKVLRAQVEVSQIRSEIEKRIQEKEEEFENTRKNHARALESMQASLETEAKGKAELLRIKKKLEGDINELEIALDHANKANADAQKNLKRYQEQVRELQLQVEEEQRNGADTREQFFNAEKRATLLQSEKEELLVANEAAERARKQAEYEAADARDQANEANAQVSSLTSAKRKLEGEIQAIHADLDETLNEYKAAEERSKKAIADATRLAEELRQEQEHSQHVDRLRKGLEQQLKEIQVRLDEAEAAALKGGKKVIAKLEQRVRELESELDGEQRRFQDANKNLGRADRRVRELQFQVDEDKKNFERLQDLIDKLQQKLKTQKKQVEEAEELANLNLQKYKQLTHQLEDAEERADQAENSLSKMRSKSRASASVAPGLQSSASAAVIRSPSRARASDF

One may read the Kd as the concentration at which binding is half-saturated. A higher Kd goes with a looser complex. For “TTN-1 fragment 11/12 Ig38-Ig39-Ig40 (from UniProt G4SLH0)”, the Kd was 1.5 nM. This lies in the single-digit nanomolar range.

(Values after publication PMC2908218.)
